Results on 8 molecules are retold here after patent publication US20240084039A1.

The target of assay [1] is pre-existing anti-drug antibodies (ADA) present in human sera. Briefly: ELISA pre-existing ADA binding assay, confirmatory setup, test molecule coated, 40 human sera.
For assay [2] the target is unchanged. Briefly: ELISA pre-existing ADA binding assay, confirmatory setup, test molecule coated, 20 human sera (second row for PRO1922).
For assay [3] the target is unchanged. Kind of assay: ELISA pre-existing ADA binding assay, confirmatory setup, test molecule coated, 20 human sera.
For assay [4] the target is unchanged. Kind of assay: ELISA pre-existing ADA binding assay, confirmatory setup, test molecule coated, 20 human sera (second row for PRO2230).

B1: PRO2760 (protein)
chain: DIQMTQSPASLSASVGDRVTITCQASQSIGTYLAWYQQKPGKPPKLLIYRAFILASGVPSRFSGSGSGTDFTLTISSLQPEDFATYYCQSNFYSDSTTIGPNAFGTGTKVTVLGGGGGSEVQLVESGGGRVQPGGSLRLSCAASGFSFSANYYPCWVRQAPGKGLEWIGCIYGGSSDITYDAQWTKGRFTISRDNSKNTVYLQMNSLRAEDTATYYCARSAWYSGWGGDLWGQGTQVTVSSGGGGSGGGGSGGGGSGGGGSIQMTQSPSSLSASVGDRVTITCQASQSISNRLAWYQQKPGKAPKLLIYSASTLASGVPSRFSGSGSGTDFTLTISSLQPEDFATYYCQSTYYGNDGNAFGTGTKVTVLGGGGGSEVQLVESGGGLVQPGGSLRLSCAASGFSFNSDYWIYWVRQAPGKGLEWIASIYGGSSGNTQYASWAQGRFTISRDNSKNTVYLQMNSLRAEDTAVYFCARGYVDYGGATDLWGQGTLVTVSSGGGGSGGGGSIQMTQSPSSLSASVGDRVTITCQSSESVYSNNQLSWYQQKPGQPPKLLIYDASDLASGVPSRFSGSGSGTDFTLTISSLQPEDFATYYCAGGFSSSSDTAFGGGTKLTVLGGGGGSGGGGSGGGGSGGGGSEVQLVESGGGLVQPGGSLRLSCAASGFSLSSNAMGWVRQAPGKGLEYIGIISVGGFTYYASWAKGRFTISRDNSKNTVYLQMNSLRAEDTATYFCARDRHGGDSSGAFYLWGQGTLVTVSS
As to B1, in assay [1], the % positives of total tested serum samples was found to be 25% and the No of positive serum samples above 31.56% CCP (serum samples) is 10.

B2: PRO2761 (protein)
chain: DIQMTQSPASLSASVGDRVTITCQASQSIGTYLAWYQQKPGKPPKLLIYRAFILASGVPSRFSGSGSGTDFTLTISSLQPEDFATYYCQSNFYSDSTTIGPNAFGTGTKVTVLGGGGGSEVQLVESGGGLVQPGGSLRLSCAASGFSFSANYYPCWVRQAPGKGLEWIGCIYGGSSDITYDAQWTKGRFTISRDNSKNTVYLQMNSLRAEDTAVYYCARSAWYSGWGGDLWGQGTLVTVSSGGGGSGGGGSGGGGSGGGGSIQMTQSPSSLSASVGDRVTITCQASQSISNRLAWYQQKPGKAPKLLIYSASTLASGVPSRFSGSGSGTDFTLTISSLQPEDFATYYCQSTYYGNDGNAFGTGTKVTVLGGGGGSEVQLVESGGGLVQPGGSLRLSCAASGFSFNSDYWIYWVRQAPGKGLEWIASIYGGSSGNTQYASWAQGRFTISRDNSKNTVYLQMNSLRAEDTAVYFCARGYVDYGGATDLWGQGTLVTVSSGGGGSGGGGSIQMTQSPSSLSASVGDRVTITCQSSESVYSNNQLSWYQQKPGQPPKLLIYDASDLASGVPSRFSGSGSGTDFTLTISSLQPEDFATYYCAGGFSSSSDTAFGGGTKLTVLGGGGGSGGGGSGGGGSGGGGSEVQLVESGGGRVQPGGSLRLSCAASGFSLSSNAMGWVRQAPGKGLEYIGIISVGGFTYYASWAKGRFTISRDNSKNTVYLQMNSLRAEDTATYFCARDRHGGDSSGAFYLWGQGTQVTVSS
In the case of B2, in assay [1], the % positives of total tested serum samples worked out at 7.5% and the No of positive serum samples above 31.56% CCP (serum samples) stood at 3.

B3: PRO2764 (protein)
chain: DIQMTQSPASLSASVGDRVTITCQASQSIGTYLAWYQQKPGKPPKLLIYRAFILASGVPSRFSGSGSGTDFTLTISSLQPEDFATYYCQSNFYSDSTTIGPNAFGCGTKVTVLGGGGGSEVQLVESGGGRVQPGGSLRLSCAASGFSFSANYYPCWVRQAPGKGLEWIGCIYGGSSDITYDANWTKGRFTISRDNSKNTVYLQMNSLRAEDTATYYCARSAWYSGWGGDLWGQGTQVTVSSGGGGSGGGGSGGGGSGGGGSIQMTQSPSSLSASVGDRVTITCQASQSISNRLAWYQQKPGKAPKLLIYSASTLASGVPSRFSGSGSGTDFTLTISSLQPEDFATYYCQSTYYGNDGNAFGTGTKVTVLGGGGGSEVQLVESGGGRVQPGGSLRLSCAASGFSFNSDYWIYWVRQAPGKCLEWIASIYGGSSGNTQYASWAQGRFTISRDNSKNTVYLQMNSLRAEDTATYFCARGYVDYGGATDLWGQGTQVTVSSGGGGSGGGGSIQMTQSPSSLSASVGDRVTITCQSSESVYSNNQLSWYQQKPGQPPKLLIYDASDLASGVPSRFSGSGSGTDFTLTISSLQPEDFATYYCAGGFSSSSDTAFGGGTKLTVLGGGGGSGGGGSGGGGSGGGGSEVQLVESGGGRVQPGGSLRLSCAASGFSLSSNAMGWVRQAPGKGLEYIGIISVGGFTYYASWAKGRFTISRDNSKNTVYLQMNSLRAEDTATYFCARDRHGGDSSGAFYLWGQGTQVTVSS
Consider B3, for which, in assay [1], the % positives of total tested serum samples is 2.5% and the No of positive serum samples above 31.56% CCP (serum samples) came to 1.

B4: PRO2765 (protein)
chain: DIQMTQSPASLSASVGDRVTITCQASQSIGTYLAWYQQKPGKPPKLLIYRAFILASGVPSRFSGSGSGTDFTLTISSLQPEDFATYYCQSNFYSDSTTIGPNAFGCGTKVTVLGGGGGSEVQLVESGGGRVQPGGSLRLSCAASGFSFSANYYPCWVRQAPGKGLEWIGCIYGGSSDITYDANWTKGRFTISRDNSKNTVYLQMNSLRAEDTATYYCARSAWYSGWGGDLWGQGTQVTVSSGGGGSGGGGSGGGGSGGGGSIQMTQSPSSLSASVGDRVTITCQASQSISNRLAWYQQKPGKAPKLLIYSASTLASGVPSRFSGSGSGTDFTLTISSLQPEDFATYYCQSTYYGNDGNAFGTGTKVTVLGGGGGSEVQLVESGGGRVQPGGSLRLSCAASGFSFNSDYWIYWVRQAPGKCLEWIASIYGGSSGNTQYASWAQGRFTISRDNSKNTVYLQMNSLRAEDTATYFCARGYVDYGGATDLWGQGTQVTVSSGGGGSGGGGSIQMTQSPSSLSASVGDRVTITCQSSESVYSNNQLSWYQQKPGQPPKLLIYDASDLASGVPSRFSGSGSGTDFTLTISSLQPEDFATYYCAGGFSSSSDTAFGCGTKLTVLGGGGGSGGGGSGGGGSGGGGSEVQLVESGGGRVQPGGSLRLSCAASGFSLSSNAMGWVRQAPGKCLEYIGIISVGGFTYYASWAKGRFTISRDNSKNTVYLQMNSLRAEDTATYFCARDRHGGDSSGAFYLWGQGTQVTVSS
With B4, in assay [1], the % positives of total tested serum samples came to 2.5% and the No of positive serum samples above 31.56% CCP (serum samples) came out at 1.

B5: PRO2763 (protein)
chain: DIQMTQSPASLSASVGDRVTITCQASQSIGTYLAWYQQKPGKPPKLLIYRAFILASGVPSRFSGSGSGTDFTLTISSLQPEDFATYYCQSNFYSDSTTIGPNAFGCGTKVTVLGGGGGSEVQLVESGGGRVQPGGSLRLSCAASGFSFSANYYPCWVRQAPGKGLEWIGCIYGGSSDITYDAQWTKGRFTISRDNSKNTVYLQMNSLRAEDTATYYCARSAWYSGWGGDLWGQGTQVTVSSGGGGSGGGGSGGGGSGGGGSIQMTQSPSSLSASVGDRVTITCQASQSISNRLAWYQQKPGKAPKLLIYSASTLASGVPSRFSGSGSGTDFTLTISSLQPEDFATYYCQSTYYGNDGNAFGTGTKVTVLGGGGGSEVQLVESGGGRVQPGGSLRLSCAASGFSFNSDYWIYWVRQAPGKCLEWIASIYGGSSGNTQYASWAQGRFTISRDNSKNTVYLQMNSLRAEDTATYFCARGYVDYGGATDLWGQGTQVTVSSGGGGSGGGGSIQMTQSPSSLSASVGDRVTITCQSSESVYSNNQLSWYQQKPGQPPKLLIYDASDLASGVPSRFSGSGSGTDFTLTISSLQPEDFATYYCAGGFSSSSDTAFGCGTKLTVLGGGGGSGGGGSGGGGSGGGGSEVQLVESGGGRVQPGGSLRLSCAASGFSLSSNAMGWVRQAPGKCLEYIGIISVGGFTYYASWAKGRFTISRDNSKNTVYLQMNSLRAEDTATYFCARDRHGGDSSGAFYLWGQGTQVTVSS
For B5, in assay [1], the % positives of total tested serum samples came out at 2.5% and the No of positive serum samples above 31.56% CCP (serum samples) worked out at 1.

B6: PRO2762 (protein)
chain: DIQMTQSPASLSASVGDRVTITCQASQSIGTYLAWYQQKPGKPPKLLIYRAFILASGVPSRFSGSGSGTDFTLTISSLQPEDFATYYCQSNFYSDSTTIGPNAFGCGTKVTVLGGGGGSEVQLVESGGGRVQPGGSLRLSCAASGFSFSANYYPCWVRQAPGKGLEWIGCIYGGSSDITYDAQWTKGRFTISRDNSKNTVYLQMNSLRAEDTATYYCARSAWYSGWGGDLWGQGTQVTVSSGGGGSGGGGSGGGGSGGGGSIQMTQSPSSLSASVGDRVTITCQASQSISNRLAWYQQKPGKAPKLLIYSASTLASGVPSRFSGSGSGTDFTLTISSLQPEDFATYYCQSTYYGNDGNAFGTGTKVTVLGGGGGSEVQLVESGGGRVQPGGSLRLSCAASGFSFNSDYWIYWVRQAPGKCLEWIASIYGGSSGNTQYASWAQGRFTISRDNSKNTVYLQMNSLRAEDTATYFCARGYVDYGGATDLWGQGTQVTVSSGGGGSGGGGSIQMTQSPSSLSASVGDRVTITCQSSESVYSNNQLSWYQQKPGQPPKLLIYDASDLASGVPSRFSGSGSGTDFTLTISSLQPEDFATYYCAGGFSSSSDTAFGGGTKLTVLGGGGGSGGGGSGGGGSGGGGSEVQLVESGGGRVQPGGSLRLSCAASGFSLSSNAMGWVRQAPGKGLEYIGIISVGGFTYYASWAKGRFTISRDNSKNTVYLQMNSLRAEDTATYFCARDRHGGDSSGAFYLWGQGTQVTVSS
In assay [1], B6 gave a % positives of total tested serum samples of 7.5% and a No of positive serum samples above 31.56% CCP (serum samples) of 3.

B7: PRO1922 (scFv)
scFv: DIQMTQSPSSLSASVGDRVTITCQASESIYSSLAWYQQKPGKAPKLLIYLASTLASGVPSRFSGSGSGTDFTLTISSLQPEDFATYYCQSTDYTTSTHRNSFGTGTKVTVLGGGGGSGGGGSGGGGSGGGGSEVQLVESGGGLVQPGGSLRLSCAASGFSFSTTYYMCWVRQAPGKGLEWIGCTNTASSVRTYYATWAKGRFTISRDNSKNTVYLQMNSLRAEDTAVYYCARDMGFADYALNLWGQGTLVTVSS
For the molecule B7, in assay [2], the % positives of total tested serum samples worked out at 80% and the No of positive serum samples above 30% CCP (serum samples) came out at 16. For the same molecule, in assay [3], the % positives of total tested serum samples came out at 80% and the No of positive serum samples above 30% CCP (serum samples) is 16.

B8: PRO2230 (scFv)
scFv: DIQMTQSPASLSASVGDRVTITCQASQSIGTYLAWYQQKPGKPPKLLIYRAFILASGVPSRFSGSGSGTDFTLTISSLQPEDFATYYCQSNFYSDSTTIGPNAFGTGTKVTVLGGGGGSGGGGSGGGGSGGGGSEVQLVESGGGLVQPGGSLRLSCAASGFSFNSDYWIYWVRQAPGKGLEWIASIYGGSSGNTQYASWAQGRFTISRDNSKNTVYLQMNSLRAEDTAVYFCARGYVDYGGATDLWGQGTLVTVSS
On to B8, for which the % positives of total tested serum samples in assay [4] amounted to 76%; in assay [3], 90%. Besides, the figures for the No of positive serum samples above 30% CCP (serum samples) in assay [4] and in assay [3] were 15 and 18, respectively.
